The record followed here is publication PMC11882963 (Nature Communications, 2024).

The stoichiometry N is the number of molecules, sites or subunits per partner or assembly.

Data set [1] deals with T1, MntR WT (Bacillus subtilis, UniProt P54512 1-142).
T1 sequence: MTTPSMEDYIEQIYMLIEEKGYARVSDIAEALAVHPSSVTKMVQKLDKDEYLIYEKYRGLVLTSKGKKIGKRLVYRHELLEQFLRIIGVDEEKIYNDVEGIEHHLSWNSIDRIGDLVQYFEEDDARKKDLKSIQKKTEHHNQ
In words: FSEC.

The target in data set [2] is T2, MntR Y22A (Bacillus subtilis, UniProt P54512 1-142, Y22A).
T2 sequence: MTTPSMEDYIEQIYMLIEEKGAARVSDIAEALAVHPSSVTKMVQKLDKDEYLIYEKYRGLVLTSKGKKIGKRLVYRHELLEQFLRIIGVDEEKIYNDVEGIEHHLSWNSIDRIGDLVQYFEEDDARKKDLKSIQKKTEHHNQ
In words: FSEC.

The target in data set [3] is T3, MntR D27A (Bacillus subtilis, UniProt P54512 1-142, D27A).
T3 sequence: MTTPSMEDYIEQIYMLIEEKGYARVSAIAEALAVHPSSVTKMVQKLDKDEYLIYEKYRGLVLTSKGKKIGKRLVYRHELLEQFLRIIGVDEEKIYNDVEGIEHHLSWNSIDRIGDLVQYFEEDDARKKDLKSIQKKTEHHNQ
The data set is described as follows: FSEC.

The target of data set [4] is T3, MntR D27A. The data set is described as follows: mass photometry.
Data set [5] has as its target T1, MntR WT. In words: cryo-EM.
The data set “mass photometry” deals with the molecule itself. The data set is described as follows: mass photometry.
Data set [6] addresses T1, MntR WT. The data set is described as follows: FSEC. The source holds these as a separate data set.
In data set [7] the target is T2, MntR Y22A. The data set is described as follows: mass photometry.
In data set [8] the target is T3, MntR D27A. The data set is described as follows: mass photometry. The source holds these as a separate data set.
Data set [9] addresses T1, MntR WT. The data set is described as follows: mass photometry.

B1: H26 (mntH operator) (dsDNA)
DNA 1: GATAATTTGCCTTAAGGAAACTCTTC
DNA 2: GAAGAGTTTCCTTAAGGCAAATTATC
For the molecule B1, the binding result in the data set with MntR WT [1], in the data set with MntR Y22A [2] and with MntR D27A [3] was “binds” throughout.

B2: P84 (mneP regulatory region) (dsDNA)
DNA 1: CCTTTTTAGCATAGCTCCAACTTTTTTTCTGTCACCTTATTTATTAGTAAACAGGAAACAACGTTGCTATAGACCCACTCGAAG
DNA 2: CTTCGAGTGGGTCTATAGCAACGTTGTTTCCTGTTTACTAATAAATAAGGTGACAGAAAAAAAGTTGGAGCTATGCTAAAAAGG
Consider B2, for which the binding result with MntR D27A [4] and with MntR WT [5] was “binds” each time.

B3: Bacillus subtilis MntR, wild type (natural protein)
chain: MTTPSMEDYIEQIYMLIEEKGYARVSDIAEALAVHPSSVTKMVQKLDKDEYLIYEKYRGLVLTSKGKKIGKRLVYRHELLEQFLRIIGVDEEKIYNDVEGIEHHLSWNSIDRIGDLVQYFEEDDARKKDLKSIQKKTEHHNQ
Consider B3, for which, in the data set “mass photometry”, the “stoichiometry N” value worked out at 2.

B4: P26 (mneP site 1) (dsDNA)
DNA 1: CAACGTTGCTATAGACCCACTCGAAA
DNA 2: TTTCGAGTGGGTCTATAGCAACGTTG
In the case of B4, the binding result with MntR Y22A [2], in the data set with MntR D27A [3] and with MntR WT [6] was “no binding” throughout.

B5: C84 (four consensus MntR sites) (dsDNA)
DNA 1: CCTTTTTTGCCTTAAGGAAACTTTTTTGCCTTAAGGAAACTTATTTGCCTTAAGGAAACTACTTTGCCTTAAGGAAACTCGAAG
DNA 2: CTTCGAGTTTCCTTAAGGCAAAGTAGTTTCCTTAAGGCAAATAAGTTTCCTTAAGGCAAAAAAGTTTCCTTAAGGCAAAAAAGG
As for B5, the binding result with MntR Y22A [7], in the data set with MntR D27A [8] and with MntR WT [9] was “binds” in each case.
